1 molecule from article PMC10127277 can be followed below.

For this experiment, the target named is human RNF128 (GRAIL) extracellular domain (human) (UniProt Q8TEB7). Nature of the experiment: SPR; Biacore T100; biotinylated ECD (ligand) captured on a streptavidin (SA) series S chip, ~100-200 RU; non-biotinylated VHH as analyte in HBS-P+ buffer, twofold dilutions from 500 nM (RNF128 E2, RNF130 D1) or 1000 nM (RNF43 C8); injection 60 s at 30 ul/min, dissociation 240 s; regeneration 1 x 10 sec glycine pH 2.5; 1:1 Langmuir model or equilibrium. (In general: SPR reads the build-up and loss of mass on a sensor chip optically.)
Chain of human RNF128 (GRAIL) extracellular domain (human) (Q8TEB7 39-428): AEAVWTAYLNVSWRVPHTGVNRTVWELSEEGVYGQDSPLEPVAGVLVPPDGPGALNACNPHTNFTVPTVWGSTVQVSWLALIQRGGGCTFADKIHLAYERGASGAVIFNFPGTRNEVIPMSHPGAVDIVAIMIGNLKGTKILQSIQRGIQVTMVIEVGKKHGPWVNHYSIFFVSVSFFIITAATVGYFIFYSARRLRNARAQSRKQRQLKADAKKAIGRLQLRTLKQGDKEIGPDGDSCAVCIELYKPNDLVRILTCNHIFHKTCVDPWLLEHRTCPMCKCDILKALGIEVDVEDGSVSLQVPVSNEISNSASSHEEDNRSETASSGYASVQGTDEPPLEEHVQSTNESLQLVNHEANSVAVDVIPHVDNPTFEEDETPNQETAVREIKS

B1: RNF128-E2 nanobody (VHH)
VHH: QVQLQESGGGLVQAGGSLRLSCAASGSISGGKGMGWYRQAPGKEREFVAAIGSGAITYYADSVKGRFTISRDNAKNTVYLQMNSLKPEDTAVYYCAVYTTALDEYPYWGQGTQVTVSS
Take B1: the Kd (in general, the free concentration of one partner at which half of the binding sites on the other are occupied at equilibrium, for simple one-to-one binding) amounted to 10 nM.
